According to article PMC11580892:

Target: T1, TRPV2-MBP (wild-type TRPV2 with an N-terminal maltose binding protein tag), Q9WUD2
T1 chain: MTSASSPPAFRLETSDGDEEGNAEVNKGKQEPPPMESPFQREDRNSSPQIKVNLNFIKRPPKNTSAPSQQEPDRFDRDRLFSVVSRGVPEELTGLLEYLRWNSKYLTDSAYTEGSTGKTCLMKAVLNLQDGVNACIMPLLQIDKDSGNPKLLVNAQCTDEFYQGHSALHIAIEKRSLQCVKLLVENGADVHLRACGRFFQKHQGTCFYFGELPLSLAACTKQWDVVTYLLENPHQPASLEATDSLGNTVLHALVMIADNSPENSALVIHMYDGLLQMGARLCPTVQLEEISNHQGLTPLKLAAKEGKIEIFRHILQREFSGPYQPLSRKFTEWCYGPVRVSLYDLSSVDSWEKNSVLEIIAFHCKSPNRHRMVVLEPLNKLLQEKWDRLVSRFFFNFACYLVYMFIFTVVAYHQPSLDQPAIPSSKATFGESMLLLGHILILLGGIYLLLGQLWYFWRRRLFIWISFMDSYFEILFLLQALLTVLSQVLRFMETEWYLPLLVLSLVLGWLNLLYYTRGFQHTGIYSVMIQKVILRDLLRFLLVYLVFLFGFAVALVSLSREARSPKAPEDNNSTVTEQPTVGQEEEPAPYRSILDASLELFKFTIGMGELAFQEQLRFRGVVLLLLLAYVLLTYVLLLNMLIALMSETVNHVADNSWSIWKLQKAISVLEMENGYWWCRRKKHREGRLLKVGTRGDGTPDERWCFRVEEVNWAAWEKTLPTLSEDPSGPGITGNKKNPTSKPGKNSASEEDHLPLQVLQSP
Experiment: SEC
Conditions: remark: other sources report otherwise

B1: TRPV2-MBP (wild-type TRPV2 with an N-terminal maltose binding protein tag), Q9WUD2 1-761 (natural protein)
chain: MTSASSPPAFRLETSDGDEEGNAEVNKGKQEPPPMESPFQREDRNSSPQIKVNLNFIKRPPKNTSAPSQQEPDRFDRDRLFSVVSRGVPEELTGLLEYLRWNSKYLTDSAYTEGSTGKTCLMKAVLNLQDGVNACIMPLLQIDKDSGNPKLLVNAQCTDEFYQGHSALHIAIEKRSLQCVKLLVENGADVHLRACGRFFQKHQGTCFYFGELPLSLAACTKQWDVVTYLLENPHQPASLEATDSLGNTVLHALVMIADNSPENSALVIHMYDGLLQMGARLCPTVQLEEISNHQGLTPLKLAAKEGKIEIFRHILQREFSGPYQPLSRKFTEWCYGPVRVSLYDLSSVDSWEKNSVLEIIAFHCKSPNRHRMVVLEPLNKLLQEKWDRLVSRFFFNFACYLVYMFIFTVVAYHQPSLDQPAIPSSKATFGESMLLLGHILILLGGIYLLLGQLWYFWRRRLFIWISFMDSYFEILFLLQALLTVLSQVLRFMETEWYLPLLVLSLVLGWLNLLYYTRGFQHTGIYSVMIQKVILRDLLRFLLVYLVFLFGFAVALVSLSREARSPKAPEDNNSTVTEQPTVGQEEEPAPYRSILDASLELFKFTIGMGELAFQEQLRFRGVVLLLLLAYVLLTYVLLLNMLIALMSETVNHVADNSWSIWKLQKAISVLEMENGYWWCRRKKHREGRLLKVGTRGDGTPDERWCFRVEEVNWAAWEKTLPTLSEDPSGPGITGNKKNPTSKPGKNSASEEDHLPLQVLQSP
- stoichiometry N: 4
